These results are taken from paper PMC10397247.

Common to all, as to experiment: two-hybrid library CCNG1;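 also: natural log of median RNA to DNA barcode read ratio; higher means stronger binding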
For assay [1], the target named is T1, P6mS.
T1 chain: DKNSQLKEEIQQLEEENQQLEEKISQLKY

Assay [2] concerns the target T2, P7mS.
T2 chain: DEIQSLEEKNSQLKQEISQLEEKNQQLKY

For assay [3], the target named is T3, P9mS.
T3 chain: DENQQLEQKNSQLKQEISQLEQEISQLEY

The target of assay [4] is T4, P8mS.
T4 chain: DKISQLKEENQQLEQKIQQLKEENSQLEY

The target in assay [5] is T5, 4H3162-bN.
T5 chain: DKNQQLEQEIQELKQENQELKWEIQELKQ

For assay [6], the target named is T6, 4H3628-bN.
T6 chain: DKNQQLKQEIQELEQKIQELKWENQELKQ

Assay [7] concerns the target T7, 4H3462-bN.
T7 chain: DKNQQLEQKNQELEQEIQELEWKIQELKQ

Assay [8] concerns the target T8, 4H3613-bN.
T8 chain: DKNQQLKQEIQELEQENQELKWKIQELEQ

Assay [9] deals with T9, 4H3175-bN.
T9 chain: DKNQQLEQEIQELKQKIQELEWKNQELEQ

Assay [10] has as its target T10, 4H3974-bN.
T10 chain: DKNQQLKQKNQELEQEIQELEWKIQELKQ

In assay [11] the target is T11, 4H626-bN.
T11 chain: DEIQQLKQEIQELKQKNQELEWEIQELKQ

In assay [12] the target is T12, 4H1710-bN.
T12 chain: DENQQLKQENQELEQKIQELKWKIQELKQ

Assay [13] has as its target T13, 4H3926-bN.
T13 chain: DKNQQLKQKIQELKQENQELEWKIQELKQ

Assay [14] deals with T14, 4H3817-bN.
T14 chain: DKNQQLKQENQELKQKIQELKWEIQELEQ

The target of assay [15] is T15, 4H918-bN.
T15 chain: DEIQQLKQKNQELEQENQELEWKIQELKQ

In assay [16] the target is T16, 4H1899-bN.
T16 chain: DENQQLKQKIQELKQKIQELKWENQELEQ

In assay [17] the target is T17, 4H850-bN.
T17 chain: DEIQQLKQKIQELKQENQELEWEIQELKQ

Assay [18] addresses T18, 4H570-bN.
T18 chain: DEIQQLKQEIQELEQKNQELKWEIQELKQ

In assay [19] the target is T19, 4H3858-bN.
T19 chain: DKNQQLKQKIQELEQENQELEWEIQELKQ

Assay [20] addresses T20, 4H3497-bN.
T20 chain: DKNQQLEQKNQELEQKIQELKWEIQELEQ

The target of assay [21] is T21, 4H1544-bN.
T21 chain: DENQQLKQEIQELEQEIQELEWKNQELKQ

Assay [22] addresses T22, 4H1985-bN.
T22 chain: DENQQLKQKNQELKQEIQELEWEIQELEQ

The target of assay [23] is T23, 4H3277-bN.
T23 chain: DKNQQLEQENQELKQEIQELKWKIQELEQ

Assay [24] addresses T24, 4H3298-bN.
T24 chain: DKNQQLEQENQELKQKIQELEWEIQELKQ

Assay [25] deals with T25, 4H906-bN.
T25 chain: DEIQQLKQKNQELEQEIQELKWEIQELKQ

In assay [26] the target is T26, 4H591-bN.
T26 chain: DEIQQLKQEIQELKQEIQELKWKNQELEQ

For assay [27], the target named is T27, 4H3843-bN.
T27 chain: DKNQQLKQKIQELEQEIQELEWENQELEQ

Assay [28] deals with T28, 4H3782-bN.
T28 chain: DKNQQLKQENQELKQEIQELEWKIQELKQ

The target of assay [29] is T29, 4H687-bN.
T29 chain: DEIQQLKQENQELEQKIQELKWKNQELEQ

The target of assay [30] is T30, 4H797-bN.
T30 chain: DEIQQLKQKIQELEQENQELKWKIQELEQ

Assay [31] deals with T31, 4H3189-bN.
T31 chain: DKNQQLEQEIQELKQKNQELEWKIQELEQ

The target of assay [32] is T32, 4H883-bN.
T32 chain: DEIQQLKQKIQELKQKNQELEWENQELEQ

Assay [33] concerns the target T33, 4H568-bN.
T33 chain: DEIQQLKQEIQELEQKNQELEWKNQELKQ

For assay [34], the target named is T34, 4H3606-bN.
T34 chain: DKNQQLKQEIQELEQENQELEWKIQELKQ

In assay [35] the target is T35, 4H2697-bN.
T35 chain: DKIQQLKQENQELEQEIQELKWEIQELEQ

Assay [36] addresses T36, 4H2667-bN.
T36 chain: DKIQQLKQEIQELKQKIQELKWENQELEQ

In assay [37] the target is T37, 4H2610-bN.
T37 chain: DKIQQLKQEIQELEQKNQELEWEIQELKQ

For assay [38], the target named is T38, 4H607-bN.
T38 chain: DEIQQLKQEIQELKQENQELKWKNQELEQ

Assay [39] deals with T39, 4H967-bN.
T39 chain: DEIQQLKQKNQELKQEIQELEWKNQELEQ

The target of assay [40] is T40, 4H4001-bN.
T40 chain: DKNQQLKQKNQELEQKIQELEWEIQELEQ

In assay [41] the target is T41, 4H331-bN.
T41 chain: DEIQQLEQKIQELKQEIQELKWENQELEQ

Assay [42] addresses T42, 4H72-bN.
T42 chain: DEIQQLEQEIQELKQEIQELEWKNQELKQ

Assay [43] has as its target T43, 4H370-bN.
T43 chain: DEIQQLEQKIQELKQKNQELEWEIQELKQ

For assay [44], the target named is T44, 4H883-bA.
T44 chain: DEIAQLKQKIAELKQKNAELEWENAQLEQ

Assay [45] concerns the target T45, 4H462-bN.
T45 chain: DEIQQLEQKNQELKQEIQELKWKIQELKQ

In assay [46] the target is T46, 4H953-bN.
T46 chain: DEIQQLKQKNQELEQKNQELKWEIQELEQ

Assay [47] addresses T47, 4H3427-bN.
T47 chain: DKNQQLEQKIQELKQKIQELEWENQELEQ

In assay [48] the target is T48, 4H2729-bN.
T48 chain: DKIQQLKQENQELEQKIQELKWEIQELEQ

Assay [49] deals with T49, 4H949-bN.
T49 chain: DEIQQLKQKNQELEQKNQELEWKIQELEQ

The target in assay [50] is T50, 4H2576-bN.
T50 chain: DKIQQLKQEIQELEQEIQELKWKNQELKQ

For assay [51], the target named is T51, 4H338-bN.
T51 chain: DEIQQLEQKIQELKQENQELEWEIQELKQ

Assay [52] deals with T52, 4H3112-bN.
T52 chain: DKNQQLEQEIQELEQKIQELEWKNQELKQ

Assay [53] has as its target T53, 4H717-bN.
T53 chain: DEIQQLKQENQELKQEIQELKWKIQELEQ

Assay [54] has as its target T54, 4H3185-bN.
T54 chain: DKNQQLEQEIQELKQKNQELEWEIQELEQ

Assay [55] addresses T55, 4H754-bN.
T55 chain: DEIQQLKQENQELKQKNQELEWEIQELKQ

Assay [56] deals with T56, 4H3354-bN.
T56 chain: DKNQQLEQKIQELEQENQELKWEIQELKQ

Assay [57] concerns the target T57, 4H454-bN.
T57 chain: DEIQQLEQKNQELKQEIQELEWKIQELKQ

The target in assay [58] is T58, 4H3855-bN.
T58 chain: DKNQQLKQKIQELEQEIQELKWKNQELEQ

The target of assay [59] is T59, 4H2618-bN.
T59 chain: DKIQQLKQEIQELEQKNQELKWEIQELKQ

The target in assay [60] is T60, 4H908-bN.
T60 chain: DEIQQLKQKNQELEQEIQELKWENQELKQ

Regarding DKNSQLKEEIQQLEEENQQLEEKISQLKY [P6mS], the interaction score in [1] was -0.275; in assay [2], -2.21; in [3] it was -0.654; in assay [4], -0.784.

Turning to DENQQLKQEIQELEQEIQELEWKNQELKQ [4H1544-bN], the interaction score in [5] is -1.96; in assay [6], 0.019; in [7], 1.08; in [8], -1.07; in [9], 0.167; in assay [10], -0.0151. The interaction score was -1.03 in assay [11]; 1.41 in assay [12]; -0.652 in assay [13]; -0.351 in assay [14]; -0.127 in assay [15]; 1.82 in [16]. Also, the interaction score in assay [17] is 0.669; in assay [18] it was -0.108; in assay [19] it was -0.293; in [20] it was 0.211; in assay [21] it was -2.02; in assay [22], -0.277. Besides, the interaction score was -0.11 in [23], -0.192 in [24], -0.343 in assay [25] and -0.583 in assay [26].

Turning to DKIQQLKQEIQELEQKNQELEWEIQELKQ [4H2610-bN], the interaction score is 0.0276 in [27]; -1.11 in assay [28]; -1.82 in assay [29]; -1.16 in [30]; -0.821 in assay [31]; -0.137 in assay [32]. Further, the interaction score in [33] was -0.762; in assay [34], -1.38; in [35], -0.363; in assay [15], -0.666; in assay [36], 0.011; in assay [37], 0.245. The interaction score in assay [38] is -0.966; in assay [39], -0.795; in assay [40] it was -0.736; in [41] it was 0.616; in [42] it was -1.85; in [43], -2.72. Besides, the figures for the interaction score in assay [44], in assay [45] and in assay [46] were 0.288, 1.63 and -0.363, respectively.

With DKIQQLKQEIQELEQEIQELKWKNQELKQ [4H2576-bN], the interaction score in assay [47] is -2.5; in [27] it was -0.264; in assay [28], -0.233; in assay [29] it was -0.515; in [30] it was -2.07; in assay [48] it was 1.74. For the same molecule, the interaction score in [49] is 0.288; in [31], 0.118; in [50], 1.12; in assay [51] it was 0.787; in [32], 1.47; in [33] it was -0.0699. Also, the interaction score is -0.101 in assay [34]; -0.235 in assay [35]; -1.21 in assay [15]; 1.21 in [36]; -0.395 in assay [37]; -0.405 in assay [52]. Also, the interaction score is -0.239 in assay [38]; -0.909 in assay [53]; -1.08 in assay [39]; 0.0889 in assay [40]; 1.55 in [41]; 1.58 in assay [42]. Further, the interaction score was 0.148 in assay [54]; 0.65 in assay [43]; 0.456 in [55]; -1.26 in assay [56]; -0.887 in assay [57]; 1.04 in [58]. Further, the interaction score is 0.0924 in assay [45], -1.09 in assay [46], 0.876 in [59] and -0.577 in assay [60].
